The record followed here is publication PMC4938712 (Structure (London, England : 1993), 2016).

One assay has as its target HIV-1 Rev P31A (HIV-1) (UniProt P04618). Put plainly: AUC.
The target of another assay is HIV-1 Rev L64A (HIV-1) (UniProt P04618).
Assay [1] deals with T1, HIV-1 Rev, wild type (HIV-1), P04618.
T1 chain: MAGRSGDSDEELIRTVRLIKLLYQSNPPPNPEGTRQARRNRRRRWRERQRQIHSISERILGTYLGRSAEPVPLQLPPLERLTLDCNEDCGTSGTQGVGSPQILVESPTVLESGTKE
Put plainly: AUC. To be noted: remark: other sources report otherwise.

The target of the next assay is HIV-1 Rev, wild type (HIV-1, UniProt P04618). Nature of the assay: crystal structure.

As a reminder, the stoichiometry N is the number of molecules, sites or subunits per partner or assembly. In the case of “HIV-1 Rev P31A (from UniProt P04618 1-116) (natural protein)”, the stoichiometry N in the assay with HIV-1 Rev P31A (HIV-1) stood at 4.
“HIV-1 Rev L64A (from UniProt P04618 1-116) (natural protein)” displayed a stoichiometry N with HIV-1 Rev L64A (HIV-1) of 2.

B1: HIV-1 Rev, wild type, P04618 1-116 (natural protein)
chain: T1 chain
Molecule B1 showed a stoichiometry N in assay [1] of 4.

B2: anti-Rev single-chain antibody variable fragment (scFv) (scFv, V domains shown)
VH: QEQLVESGGRLVTPGTALTLTCKVSGFSLSGFWLNWVRQAPGKGLEWVGAIYRGSGSEWYASWAKGRFTISDTSTTVTLKLTSPTTEDTATYFCAADTTDNGYFTIWGPGTLVTVSS
VL: ELVMTQTPSSVSEPVGGTVTIKCQASQSISSWLSWYQQKPGQPPKLLIYDASNLASGVPSRFMGSGSGTEYTLTISGVQREDAATYYCLGGYPAASYRTAFGGGTELEII
Take B2: in the assay with HIV-1 Rev, wild type, the binding result was “binds”.
